The values below come from publication PMC6402988.

This assay has as its target ADI-15946 (human). Nature of the assay: BLI.

As for “EBOV GP cleaved (EBOV GPCL) (from UniProt Q05320 33-650) (domain or fragment)”, the Kd (commonly a measure of binding affinity in units of concentration) was under 1 pM and the koff (commonly the rate constant with which the complex falls apart) is under 1e-07 s⁻¹.
